Experimental data: paper PMC12509902, “PRMT1/PRMT5-Mediated Differential Arginine Methylation of CRIP1 Promotes the Recurrence of Small Cell Lung Cancer after Chemotherapy” (International Journal of Biological Sciences, 2025)

Target: T1, 3×Flag-PRMT5 (UniProt O14744 1-637)
T1 construct: Protein arginine methyltransferase 5 (PRMT5), from plasmid pCDH-CMV-3×Flag-PRMT5
Experiment: pull-down; GST pull-down as described in ref. 23; GST-tagged protein expressed in BL21; Flag-tagged protein purified from HEK-293T by Flag affinity gel and 3× FLAG peptide elution; the paper calls the binding direct
Details: both partners purified

T1 sequence (O14744 whole entry): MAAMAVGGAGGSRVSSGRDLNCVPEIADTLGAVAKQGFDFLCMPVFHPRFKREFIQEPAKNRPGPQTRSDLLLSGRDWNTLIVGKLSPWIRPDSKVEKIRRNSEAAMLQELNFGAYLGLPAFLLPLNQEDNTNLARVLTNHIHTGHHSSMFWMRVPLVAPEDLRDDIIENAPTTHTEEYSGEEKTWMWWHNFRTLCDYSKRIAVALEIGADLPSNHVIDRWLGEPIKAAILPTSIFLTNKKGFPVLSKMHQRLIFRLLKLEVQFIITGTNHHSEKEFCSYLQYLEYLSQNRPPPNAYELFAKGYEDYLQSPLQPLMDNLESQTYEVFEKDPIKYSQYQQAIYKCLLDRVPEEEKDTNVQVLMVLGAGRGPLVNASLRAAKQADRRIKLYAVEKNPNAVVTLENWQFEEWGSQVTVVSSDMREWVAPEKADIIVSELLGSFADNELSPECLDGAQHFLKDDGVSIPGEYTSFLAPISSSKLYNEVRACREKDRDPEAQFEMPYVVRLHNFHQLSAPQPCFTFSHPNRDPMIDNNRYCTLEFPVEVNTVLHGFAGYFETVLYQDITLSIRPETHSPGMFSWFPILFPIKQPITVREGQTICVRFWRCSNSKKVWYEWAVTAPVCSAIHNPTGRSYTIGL

B1: GST-CRIP1, full-length (FL), wild type (natural protein, UniProt P50238 1-77, looked up)
chain: MPKCPKCNKEVYFAERVTSLGKDWHRPCLKCEKCGKTLTSGGHAEHEGKPYCNHPCYAAMFGPKGFGRGGAESHTFK
notes: Cysteine-rich intestinal protein 1 (CRIP1), full length, in pGEX-6P-1; also called GST-CRIP1 WT; source: E. coli BL21, induced with 1 mM IPTG
- binding result: binds
